# Assay results taken from US20200368364A1, “CYSTEINE PEPTIDE-ENABLED ANTIBODIES” (City of Hope, priority 2016, published 2020).
# Target: FcγRIIIa on Jurkat effector cells (UniProt P08637)
# Assay: cell-based or functional assay
# Sequence of FcγRIIIa on Jurkat effector cells (P08637 17-254 limits assumed): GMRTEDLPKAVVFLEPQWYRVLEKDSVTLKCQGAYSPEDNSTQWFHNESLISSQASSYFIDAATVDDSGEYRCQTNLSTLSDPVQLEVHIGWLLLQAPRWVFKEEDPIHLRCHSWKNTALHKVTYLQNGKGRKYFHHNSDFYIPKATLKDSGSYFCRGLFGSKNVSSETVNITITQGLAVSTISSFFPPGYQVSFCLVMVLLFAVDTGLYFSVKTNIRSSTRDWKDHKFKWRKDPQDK
binder,measurement,value
"templated αCD16-Fab construct with the C-terminal fusion (175Cys trastuzumab Fab + C-terminal meditope αCD16 nanobody) (bispecific antibody, part only; not given: trastuzumab Fab chains, V domains shown, part only) VHH: EVQLVESGGELVQAGGSLRLSCAASGLTFSSYNMGWFRRAPGKEREFVASITWSGRDTFYADSVKGRFTISRDNAKNTVYLQMSSLKPEDTAVYYCAANPWPVAAPRSGTYWGQGTQVTVSSGSHHHHHHGGSQFDLCTRRLQS","EC50 of in vitro ADCC reporter assay (SKBR3 targets, Jurkat effector cells), independent measurement 1",3.2 pM
same,"EC50 of in vitro ADCC reporter assay (SKBR3 targets, Jurkat effector cells), independent measurement 2",4.7 pM
